Our source for the Kd, koff and kon values is US20160257763A1 (Zymeworks, published 2016).

In experiment [1] the target is T1, Recombinant human EGFR-ED (human, UniProt P00533 25-645).
T1 construct: extracellular domain; also called extracellular domain (ED) of EGFR
Kind of experiment: SPR (ProteOn XPR36); v1323 captured on immobilized anti-human IgG, recombinant human EGFR-ED injected as analyte; global 1:1 Langmuir fit. The method, then: (§1) The ability of v1323 comprising an EGFR binding domain to bind to the extracellular domain (ED) of EGFR was tested by Surface Plasmon Resonance (SPR) using a ProteOn XPR36 system from BIO-RAD.
(§2) Approximately 3000 RU of anti-human IgG 25 ug/ml was immobilized on a GLC chip using standard amine coupling. Exemplary SDACs were captured on the anti-human IgG immobilized chip to capture level of approximately 700 RU. Recombinant human EGFR-ED was diluted in running buffer and injected at a flow rate of 50 μl/min for 2 minutes, followed by dissociation for another 4 minutes. Sensograms were fit globally to a 1:1 Langmuir binding model. All experiments were conducted at room temperature.

Experiment [2] concerns the target T1, Recombinant human EGFR-ED. As to the kind of experiment: SPR, v1323 captured by anti-human IgG, EGFR-ED injected, 1:1 Langmuir fit. The method, then:
as §1, §2
A general note: SPR reads the build-up and loss of mass on a sensor chip optically.

Broadly, the Kd is the free concentration of one partner at which half of the binding sites on the other are occupied at equilibrium, for simple one-to-one binding. What is called koff is the first-order rate constant of dissociation. One may read the kon as the rate constant with which the complex forms.

B1: v1323, monovalent anti-EGFR antibody (EG2) (Fc fusion)
VHH: QVKLEESGGGLVQAGDSLRVSCAASGRDFSDYVMGWFRQAPGKEREFVAAISRNGLTTRYADSVKGRFTISRDNDKNMVYLQMNSLKPEDTAVYYCAVNSAGTYVSPRSREYDYWGQGTQVTVSS
notes: EU numbering; no light chain, no CH1; also called exemplary heteromultimer; not shown: hinge/linker between the VhH and the Fc (not described), and with it the heterodimer Fc carrier, left out of the chains
Consider B1, for which, in experiment [1], the Kd stood at 4.05 nM, the koff is 0.004 s⁻¹ and the association rate constant (kon) was 989000 M⁻¹ s⁻¹. In addition, the equilibrium dissociation constant (Kd) in experiment [2] was 3 to 4.5 nM.
